In this assay the target is T1, CD54 (ICAM-1) (UniProt P05362 28-480, limits assumed).
T1 construct: Amine-coupled to a CM5 chip for SPR
Description: ELISA, CD11a A domain on ICAM-1.

T1 sequence (P05362 28-480 limits assumed): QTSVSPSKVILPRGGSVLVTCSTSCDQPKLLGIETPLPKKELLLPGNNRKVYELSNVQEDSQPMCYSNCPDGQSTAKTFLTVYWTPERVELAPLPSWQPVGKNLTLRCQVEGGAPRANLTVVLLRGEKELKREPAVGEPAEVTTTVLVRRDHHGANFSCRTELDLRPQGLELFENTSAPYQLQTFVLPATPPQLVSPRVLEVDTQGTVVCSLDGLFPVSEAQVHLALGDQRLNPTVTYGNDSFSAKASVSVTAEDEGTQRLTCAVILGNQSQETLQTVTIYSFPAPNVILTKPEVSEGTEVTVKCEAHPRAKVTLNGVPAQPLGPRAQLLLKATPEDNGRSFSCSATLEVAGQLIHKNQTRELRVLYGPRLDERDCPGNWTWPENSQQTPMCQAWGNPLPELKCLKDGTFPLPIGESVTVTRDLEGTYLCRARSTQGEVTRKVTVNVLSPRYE

B1: wild-type CD11a A domain (receptor, human, UniProt P20701 150-333, looked up)
chain: CIKGNVDLVFLFDGSMSLQPDEFQKILDFMKDVMKKLSNTSYQFAAVQFSTSYKTEFDFSDYVKRKDPDALLKHVKHMLLLTNTFGAINYVATEVFREELGARPDATKVLIIITDGEATDSGNIDAAKDIIRYIIGIGKHFQTKESQETLHKFASKPASEFVKILDTFEKLKDLFTELQKKIYV
notes: domain: A domain; also called wild-type protein without this substitution
On to B1, for which the binding result is “no binding”.

For the origin of these results see patent US20030109691A1 (GENERAL HOSPITAL, published 2003).
